Assay results published in the Immune Epitope Database (IEDB).

Assays:
HLA-B*18:01 [1] = assay: IEDB peptide-MHC binding, purified MHC/competitive/fluorescence; filed as Kd, often an IC50 or EC50 that approximates it; ≥ and ≤ were set here for values at or beyond the usual limits of such assays; details: source organism: Vaccinia virus WR
HLA-B*15:17 [2] = assay: as above; details: source organism: Vaccinia virus WR
HLA-A*02:01 [3] = assay: as above; details: source organism: Vaccinia virus WR
HLA-A*01:01 = assay: IEDB peptide-MHC binding, purified MHC/direct/fluorescence; filed as Kd, often an IC50 or EC50 that approximates it; ≥ and ≤ were set here for values at or beyond the usual limits of such assays
HLA-B*15:09 = assay: as above
HLA-A*68:02 = assay: as above
HLA-B*07:02 = assay: as above
HLA-B*08:03 = assay: as above
HLA-C*07:02 = assay: as above
HLA-A*31:01 = assay: as above
HLA-A*69:01 = assay: as above
HLA-A*26:02 [4] = assay: as above; details: source organism: Variola virus
HLA-B*57:01 = assay: as above
HLA-A*24:03 = assay: as above; details: source organism: Camelpox virus M-96
HLA-A*11:01 = assay: as above
HLA-B*15:01 = assay: as above
HLA-A*26:03 = assay: as above; details: source organism: Variola virus
HLA-B*58:01 = assay: as above
HLA-B*08:01 = assay: as above
HLA-A*03:01 = assay: as above
HLA-B*44:02 = assay: as above
HLA-B*40:01 = assay: as above
HLA-A*26:01 = assay: as above
HLA-B*27:05 = assay: as above
HLA-A*02:01 [5] = assay: as above
HLA-A*30:01 = assay: as above; details: source organism: Salmonella enterica subsp. enterica serovar Typhi
HLA-B*73:01 = assay: as above
HLA-C*06:02 = assay: as above; details: source organism: Salmonella enterica subsp. enterica serovar Typhi str. CT18
HLA-B*48:01 [6] = assay: as above
HLA-B*18:01 [7] = assay: as above
HLA-A*29:02 = assay: as above
HLA-B*08:02 = assay: as above
HLA-B*46:01 = assay: as above
HLA-A*26:02 [8] = assay: IEDB peptide-MHC binding, purified MHC/competitive/fluorescence; filed as Kd, often an IC50 or EC50 that approximates it; ≥ and ≤ were set here for values at or beyond the usual limits of such assays; details: source organism: Orthomarburgvirus marburgense
HLA-B*48:01 [9] = assay: as above; details: source organism: Orthomarburgvirus marburgense
HLA-B*39:01 = assay: IEDB peptide-MHC binding, purified MHC/direct/fluorescence; filed as Kd, often an IC50 or EC50 that approximates it; ≥ and ≤ were set here for values at or beyond the usual limits of such assays; details: source organism: Marburg virus - Musoke, Kenya, 1980
HLA-B*15:17 [10] = assay: as above; details: source organism: Marburg virus - Musoke, Kenya, 1980
HLA-B*45:06 = assay: IEDB peptide-MHC binding, purified MHC/competitive/fluorescence; filed as Kd, often an IC50 or EC50 that approximates it; ≥ and ≤ were set here for values at or beyond the usual limits of such assays; details: source organism: Mycobacterium tuberculosis variant bovis BCG str. Pasteur 1173P2
HLA-B*15:42 = assay: as above; details: source organism: Mycobacterium tuberculosis variant bovis BCG str. Pasteur 1173P2
HLA-A*03:19 = assay: as above; details: source organism: Mycobacterium tuberculosis variant bovis BCG str. Pasteur 1173P2
HLA-B*83:01 = assay: as above; details: source organism: Mycobacterium tuberculosis variant bovis BCG str. Pasteur 1173P2
[11] = source organism: Camelpox virus M-96
[12] = source organism: Salmonella enterica
[13] = source organism: Salmonella enterica subsp. enterica serovar Typhi
[14] = source organism: Mycobacterium tuberculosis
[15] = source organism: Mammarenavirus lassaense
[16] = source organism: Vibrio cholerae
[17] = source organism: Marburg virus - Musoke, Kenya, 1980
[18] = source organism: Ravn virus - Ravn, Kenya, 1987

FYLFTFTIY
Kd (HLA-B*18:01 [1]): 3.89 µM
Kd (HLA-B*15:17 [2]): ≥ 20 µM
Kd (HLA-A*02:01 [3]): ≥ 20 µM
Kd (HLA-A*01:01; [11]): ≥ 20 µM
Kd (HLA-B*15:09; source organism: Variola virus): ≥ 20 µM
Kd (HLA-A*68:02; [11]): ≥ 20 µM
Kd (HLA-B*07:02; [11]): ≥ 20 µM
Kd (HLA-B*08:03; source organism: Variola virus): ≥ 20 µM
Kd (HLA-C*07:02; source organism: Vaccinia virus WR): 2 µM
Kd (HLA-A*31:01; [11]): ≥ 20 µM
Kd (HLA-A*69:01; [11]): ≥ 20 µM
Kd (HLA-A*26:02 [4]): ≥ 20 µM
Kd (HLA-B*57:01; [11]): ≥ 20 µM
Kd (HLA-A*24:03): 1.25 µM
Kd (HLA-A*11:01; [11]): ≥ 20 µM
Kd (HLA-B*15:01; [11]): ≥ 20 µM
Kd (HLA-A*26:03): ≥ 20 µM
Kd (HLA-B*58:01; [11]): ≥ 20 µM

RRRQWASCM
Kd (HLA-A*01:01; [12]): ≥ 20 µM
Kd (HLA-C*07:02; source organism: Salmonella enterica subsp. enterica serovar Typhi str. CT18): 0.045 µM
Kd (HLA-A*31:01; [12]): ≥ 20 µM
Kd (HLA-B*08:01; [13]): 13.9 µM
Kd (HLA-A*69:01; [12]): ≥ 20 µM
Kd (HLA-A*03:01; [12]): ≥ 20 µM
Kd (HLA-B*44:02; [12]): ≥ 20 µM
Kd (HLA-B*40:01; [12]): ≥ 20 µM
Kd (HLA-A*26:01; [12]): ≥ 20 µM
Kd (HLA-B*27:05; [13]): 0.0774 µM
Kd (HLA-A*02:01 [5]; [12]): ≥ 20 µM
Kd (HLA-A*30:01): ≥ 20 µM
Kd (HLA-A*11:01; [12]): ≥ 20 µM
Kd (HLA-B*15:01; [12]): ≥ 20 µM
Kd (HLA-B*73:01; source organism: Salmonella enterica subsp. enterica serovar Typhimurium): ≥ 20 µM
Kd (HLA-C*06:02): 0.024 µM
Kd (HLA-B*58:01; [12]): ≥ 20 µM

QRIAVPVTK
Kd (HLA-B*27:05; [14]): 0.095 µM
Kd (HLA-B*48:01 [6]; [14]): ≥ 20 µM
Kd (HLA-B*73:01; source organism: Mycobacterium tuberculosis str. Haarlem): ≥ 20 µM

QLDQRRALL
Kd (HLA-B*18:01 [7]; [15]): ≥ 20 µM
Kd (HLA-A*29:02; [15]): ≥ 20 µM
Kd (HLA-B*08:01; [15]): 0.773 µM
Kd (HLA-B*08:02; [15]): 15.1 µM
Kd (HLA-B*44:02; [15]): ≥ 20 µM
Kd (HLA-B*57:01; [15]): ≥ 20 µM
Kd (HLA-B*46:01; [15]): ≥ 20 µM
Kd (HLA-B*27:05; [15]): ≥ 20 µM
Kd (HLA-B*48:01 [6]; [15]): ≥ 20 µM
Kd (HLA-B*15:01; [15]): ≥ 20 µM
Kd (HLA-B*58:01; [15]): ≥ 20 µM

VLKLRFWLI
Kd (HLA-A*01:01; [16]): ≥ 20 µM
Kd (HLA-B*18:01 [7]; [16]): ≥ 20 µM
Kd (HLA-B*07:02; [16]): ≥ 20 µM
Kd (HLA-B*08:03; [16]): 0.188 µM
Kd (HLA-A*29:02; [16]): ≥ 20 µM
Kd (HLA-A*31:01; [16]): ≥ 20 µM
Kd (HLA-B*08:01; [16]): 0.034 µM
Kd (HLA-A*69:01; [16]): ≥ 20 µM
Kd (HLA-A*03:01; [16]): ≥ 20 µM
Kd (HLA-B*08:02; [16]): ≥ 20 µM
Kd (HLA-B*44:02; [16]): ≥ 20 µM
Kd (HLA-B*57:01; [16]): ≥ 20 µM
Kd (HLA-B*40:01; [16]): ≥ 20 µM
Kd (HLA-B*46:01; [16]): ≥ 20 µM
Kd (HLA-B*27:05; [16]): ≥ 20 µM
Kd (HLA-A*02:01 [5]; [16]): ≥ 20 µM
Kd (HLA-A*11:01; [16]): ≥ 20 µM
Kd (HLA-B*48:01 [6]; [16]): ≥ 20 µM
Kd (HLA-B*15:01; [16]): ≥ 20 µM
Kd (HLA-B*58:01; [16]): ≥ 20 µM

THYSGNIVH
Kd (HLA-A*26:02 [8]): ≥ 20 µM
Kd (HLA-B*48:01 [9]): ≥ 20 µM
Kd (HLA-A*01:01; [17]): ≥ 20 µM
Kd (HLA-B*15:09; [18]): 0.046 µM
Kd (HLA-B*18:01 [7]; [17]): ≥ 20 µM
Kd (HLA-A*68:02; [17]): ≥ 20 µM
Kd (HLA-B*07:02; [17]): ≥ 20 µM
Kd (HLA-B*39:01): 0.0274 µM
Kd (HLA-B*08:01; [18]): ≥ 20 µM
Kd (HLA-A*69:01; [17]): ≥ 20 µM
Kd (HLA-B*15:17 [10]): ≥ 20 µM
Kd (HLA-B*08:02; [18]): ≥ 20 µM
Kd (HLA-B*57:01; [17]): ≥ 20 µM
Kd (HLA-B*40:01; [17]): ≥ 20 µM
Kd (HLA-A*26:01; [18]): ≥ 20 µM
Kd (HLA-B*46:01; [17]): ≥ 20 µM
Kd (HLA-B*27:05; [17]): ≥ 20 µM
Kd (HLA-A*02:01 [5]; [17]): ≥ 20 µM
Kd (HLA-B*15:01; [17]): ≥ 20 µM
Kd (HLA-B*58:01; [17]): ≥ 20 µM

RWRWFRAAM
Kd (HLA-B*45:06): ≥ 5 µM
Kd (HLA-B*15:42): ≥ 5 µM
Kd (HLA-A*03:19): 0.814 µM
Kd (HLA-B*83:01): ≥ 5 µM
